We go through five molecules from patent US20140072563A1 (Regeneron, published 2014).

The target in assay [1] is hErbB3.mmh (soluble monomeric human ErbB3 extracellular domain with C-terminal myc-myc-hexahistidine tag) (human, UniProt P21860 20-642). Nature of the assay: SPR (Biacore), 25 C, mAb capture format. How it is done:
(§1) (Tables 2-4). Measurements were conducted on a Biacore 2000 or T100 instrument. […] Kinetic association (kₐ) and dissociation (kd) rate constants were determined by processing and fitting the data to a 1:1 binding model using Scrubber 2.0 curve fitting software.
In general terms: SPR reads the build-up and loss of mass on a sensor chip optically.

Assay [2] has as its target T1, hErbB3.mFc (soluble dimeric human ErbB3 extracellular domain fused to mouse Fc) (human).
T1 construct: called dimeric
T1 chain: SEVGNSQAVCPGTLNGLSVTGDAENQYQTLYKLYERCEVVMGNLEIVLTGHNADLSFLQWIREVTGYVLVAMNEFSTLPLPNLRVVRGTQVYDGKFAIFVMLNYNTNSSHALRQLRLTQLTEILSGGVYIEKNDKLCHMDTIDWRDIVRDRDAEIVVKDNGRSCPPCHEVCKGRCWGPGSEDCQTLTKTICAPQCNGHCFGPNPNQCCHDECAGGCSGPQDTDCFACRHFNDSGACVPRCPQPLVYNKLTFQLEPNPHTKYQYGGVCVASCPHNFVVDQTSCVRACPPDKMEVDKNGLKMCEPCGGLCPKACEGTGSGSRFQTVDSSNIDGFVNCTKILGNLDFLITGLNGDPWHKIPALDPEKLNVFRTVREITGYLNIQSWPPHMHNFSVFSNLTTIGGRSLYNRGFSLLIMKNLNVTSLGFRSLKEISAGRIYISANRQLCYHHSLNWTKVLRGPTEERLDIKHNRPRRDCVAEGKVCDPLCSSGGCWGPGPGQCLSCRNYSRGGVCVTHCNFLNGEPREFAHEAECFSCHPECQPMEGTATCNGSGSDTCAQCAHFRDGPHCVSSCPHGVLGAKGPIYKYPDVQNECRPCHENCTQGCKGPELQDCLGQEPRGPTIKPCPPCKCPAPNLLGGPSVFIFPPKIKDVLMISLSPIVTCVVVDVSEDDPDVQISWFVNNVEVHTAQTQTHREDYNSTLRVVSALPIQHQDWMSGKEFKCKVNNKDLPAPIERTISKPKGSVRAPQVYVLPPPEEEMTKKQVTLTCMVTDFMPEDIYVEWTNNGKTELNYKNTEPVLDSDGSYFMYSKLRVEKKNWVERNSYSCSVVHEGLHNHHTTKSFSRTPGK
The assay can be described thus: SPR (Biacore), 25 C, mAb capture format. As for the experimental part:
as §1

Chain of hErbB3.mmh (soluble monomeric human ErbB3 extracellular domain with C-terminal myc-myc-hexahistidine tag) (P21860 other isoform, or with tags, fused parts or gaps): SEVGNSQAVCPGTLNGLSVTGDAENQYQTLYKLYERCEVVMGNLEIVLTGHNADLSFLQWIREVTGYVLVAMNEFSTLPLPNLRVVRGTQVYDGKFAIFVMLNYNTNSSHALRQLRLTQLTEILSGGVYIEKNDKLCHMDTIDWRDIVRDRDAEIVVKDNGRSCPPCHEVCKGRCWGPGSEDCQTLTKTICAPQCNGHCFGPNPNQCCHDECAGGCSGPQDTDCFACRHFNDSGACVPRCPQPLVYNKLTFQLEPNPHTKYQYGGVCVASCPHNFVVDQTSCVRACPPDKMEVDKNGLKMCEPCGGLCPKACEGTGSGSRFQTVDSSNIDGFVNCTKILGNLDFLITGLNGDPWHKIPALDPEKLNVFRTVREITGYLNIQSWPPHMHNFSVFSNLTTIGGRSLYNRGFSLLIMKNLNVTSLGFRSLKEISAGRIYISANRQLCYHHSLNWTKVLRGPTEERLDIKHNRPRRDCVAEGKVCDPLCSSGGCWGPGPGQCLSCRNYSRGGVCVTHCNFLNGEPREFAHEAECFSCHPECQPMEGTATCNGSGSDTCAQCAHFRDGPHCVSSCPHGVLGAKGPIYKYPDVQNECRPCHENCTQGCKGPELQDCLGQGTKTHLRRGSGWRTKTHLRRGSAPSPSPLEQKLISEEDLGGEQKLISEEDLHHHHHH

B1: H4H2084P (antibody, V domains shown)
VH: QVQLVESGGGVVQSGKSLRLSCVASGFTFSNYGMHWVRQTPGKGLEWVARIWFDGTNKYYTDSVKGRFTLSRDSSKNTLYLQMNSLRAEDTAVYFCAREESLELDHYVMDVWGQGTTVTVSS
VL: AIQMTQSPSSLSASVGDRVTITCRASQDIRDDLGWFQQKPGKAPNLLIYAASSLQSGVPSRFSGSGSGTDFTLTISSLQPEDFATYYCLQDYNYPLTFGGGTKVEIKR
notes: Fully human, human IgG4 Fc (H4H prefix)
Regarding B1, in assay [1], binding was characterised by a dissociation constant (Kd) of 23.9 pM; the T½ was 2.98 h; the koff (usually a measure of how fast the partners let go of each other) amounted to 5.96e-05 s⁻¹; the kon (as a rule, a measure of how fast the partners come together) was found to be 2.49e+06 M⁻¹ s⁻¹. In addition, in assay [2], the Kd (as a rule, the constant that tells how readily two partners part at equilibrium) is 1.03 pM; the T½ was 44.9 h; the koff stood at 3.95e-06 s⁻¹; the kon worked out at 3.83e+06 M⁻¹ s⁻¹.

B2: H4H2098P (antibody, V domains shown)
VH: QVQLVESGGGVVQPGRSLRLSCAASGFTFSSFGMHWVRQAPGKGLEWVAVIWYVEINKYHADSVKGRFTISRDDSKNTVYLQMNSLRAEDTAVYYCARDWNDGDYGMDVWGQGTTVTVSS
VL: DIQLTQSPSFLSASVGDRVTITCWASQGISSFLAWYQQKAGKAPRLLIYAASTLQTGVPSRFSGSGSGTEFTLTISSLQPGDFATYHCQQLNSYPYTFGQGTKLEIKR
notes: as for B1
In assay [1], B2 displayed a Kd of 69 pM, a T½ of 2.25 h, a koff of 7.89e-05 s⁻¹ and a kon of 1.14e+06 M⁻¹ s⁻¹. Moreover, in assay [2], binding was characterised by a dissociation constant (Kd) of 4.06 pM, the T½ worked out at 19.8 h, the koff turned out to be 8.97e-06 s⁻¹ and the kon was determined as 2.21e+06 M⁻¹ s⁻¹.

B3: H4H2092P (antibody, V domains shown)
VH: EVQLVESGGGVVRPGGSLRLSCAASGFTFEDYGMNWVRQVPGKGLEWVSGTNWNGGITGYTGSVKGRFTISRDNAKNSLYLQMNSLRAEDTALYHCARDSGDQDAFDIWGQGTMVTVSS
VL: DIQLTQSPSFLSASVGDRVTITCWASQDISSYLAWYQQKPGKAPKLLIYAASTFQSGVPSRFSGSGSGTEFTLTISNLQPEDFATYYCQQLDSYPLSFGGGTKVEIKR
notes: as for B1
As for B3, in assay [1], the Kd is 27.8 pM, the T½ amounted to 1.72 h, the koff came to 0.000103 s⁻¹ and the kon came out at 3.72e+06 M⁻¹ s⁻¹. In assay [2], this molecule displayed a Kd of 1.45 pM, a T½ of 23.8 h, a koff of 7.46e-06 s⁻¹ and a kon of 5.16e+06 M⁻¹ s⁻¹.

B4: H4H2102P (antibody, V domains shown)
VH: EVQLVESGGGLVQPGGSLRLSCAASGFTFSNYDIHWVRQATGKGLEWVSAIGPAGDTYYSDSVKGRFTISREDAKNSLYLQMSSLRAGDTAVYYCASEGIAVRPDDYYGMDVWGQGTTVTVSA
VL: DIQLTQSPSFLSASVGDRVTITCWASQDITSYLAWYQKKPGKAPKLLIYAASTLQSGVPSRFSGSGSGTEFTLTISSLQPEDFAAYYCQQLNSYPLTFGGGTKVDIKR
notes: as for B1
In the case of B4, in assay [1], the affinity, expressed as Kd, was 55.1 pM; the T½ is 3.63 h; the koff came to 4.88e-05 s⁻¹; the kon was 886000 M⁻¹ s⁻¹. In assay [2], this molecule showed a Kd of 1.43 pM, a T½ of 78.7 h, a koff of 2.26e-06 s⁻¹ and a kon of 1.58e+06 M⁻¹ s⁻¹.

B5: H4H2094P (antibody, V domains shown)
VH: EVQLVESGGGLVQPGGSLRLSCAASGFTFSSYDMHWVRQATGKGLEWVSAIGPAGDTYYPVSAMGRFTISRDDAKNSLYLQMNSLRAGDTAVYYCAREGVTIRPDDYFGLDVWGQGTTVTVSA
VL: DIQLTQSPSFLSASVGDRVTITCWASQGISDYLAWYQKKPGKAPQLLIYAATTLQSGVPSRFSGSGSGTEFTLTISSLQPEDFATYYCQQLNTYPLTFGGGTKVEIKR
notes: as for B1
In assay [1], B5 yielded a Kd of 7.22 pM, a T½ of 13 h, a koff of 1.37e-05 s⁻¹ and a kon of 1.89e+06 M⁻¹ s⁻¹. Also, in assay [2], the Kd was found to be 0.452 pM, the T½ is 130 h, the koff worked out at 1.37e-06 s⁻¹ and the kon is 3.03e+06 M⁻¹ s⁻¹.
